According to publication PMC4511217 (Genes & Development, 2015):

B1: Rpf2 within Alb1-TAP purified pre-60S particles (natural protein)
chain: MIRTVKPKNARAKRALVKREAKLVENVKQALFIPGQSCNKNLHDIMVDLSALKKPDMKRFNRKNDIHPFEDMSPLEFFSEKNDCSLMVLMTSSKKRKNNMTFIRTFGYKIYDMIELMVADNFKLLSDFKKLTFTVGLKPMFTFQGAAFDTHPVYKQIKSLFLDFFRGESTDLQDVAGLQHVISMTIQGDFQDGEPLPNVLFRVYKLKSYKSDQGGKRLPRIELVEIGPRLDFKIGRIHTPSPDMVTEAHKKPKQLEMKTKKNVELDIMGDKLGRIHMGKQDLGKLQTRKMKGLKSKFDQGTEEGDGEVDEDYEDEASYSDDGQEYEEEFVSATDIEPSAKRQKK
B4: Rpl5 (uL18) within Alb1-TAP purified pre-60S particles (natural protein)
chain: MAFQKDAKSSAYSSRFQTPFRRRREGKTDYYQRKRLVTQHKAKYNTPKYRLVVRFTNKDIICQIISSTITGDVVLAAAYSHELPRYGITHGLTNWAAAYATGLLIARRTLQKLGLDETYKGVEEVEGEYELTEAVEDGPRPFKVFLDIGLQRTTTGARVFGALKGASDGGLYVPHSENRFPGWDFETEEIDPELLRSYIFGGHVSQYMEELADDDEERFSELFKGYLADDIDADSLEDIYTSAHEAIRADPAFKPTEKKFTKEQYAAESKKYRQTKLSKEERAARVAAKIAALAGQQ

Experiments:
[1] = molecular target: T1, Rsa4 ribosome assembly factor within Alb1-TAP purified pre-60S particles (yeast (endogenous in pre-60S particles), UniProt P25382 1-515); assay: cryo-EM structure
T1 sequence: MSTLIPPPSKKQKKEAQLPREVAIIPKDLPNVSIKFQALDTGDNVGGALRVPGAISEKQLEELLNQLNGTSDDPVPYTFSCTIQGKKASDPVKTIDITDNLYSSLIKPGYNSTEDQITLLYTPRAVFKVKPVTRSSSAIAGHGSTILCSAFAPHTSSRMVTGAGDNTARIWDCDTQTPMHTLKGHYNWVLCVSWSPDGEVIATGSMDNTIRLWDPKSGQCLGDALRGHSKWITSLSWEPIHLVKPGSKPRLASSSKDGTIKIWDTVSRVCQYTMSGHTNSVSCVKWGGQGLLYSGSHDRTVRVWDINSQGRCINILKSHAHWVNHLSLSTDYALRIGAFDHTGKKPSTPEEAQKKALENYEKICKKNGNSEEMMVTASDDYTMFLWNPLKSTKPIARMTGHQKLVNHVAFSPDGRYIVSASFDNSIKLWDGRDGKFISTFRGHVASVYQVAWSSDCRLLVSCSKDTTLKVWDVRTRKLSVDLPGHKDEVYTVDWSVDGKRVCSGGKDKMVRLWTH

[2] = molecular target: T2, Rpf2, full-length, N-terminal 6xHis-tagged (Saccharomyces cerevisiae) (Saccharomyces cerevisiae, UniProt P36160 1-344); assay: SEC + other: SAXS
T2 sequence: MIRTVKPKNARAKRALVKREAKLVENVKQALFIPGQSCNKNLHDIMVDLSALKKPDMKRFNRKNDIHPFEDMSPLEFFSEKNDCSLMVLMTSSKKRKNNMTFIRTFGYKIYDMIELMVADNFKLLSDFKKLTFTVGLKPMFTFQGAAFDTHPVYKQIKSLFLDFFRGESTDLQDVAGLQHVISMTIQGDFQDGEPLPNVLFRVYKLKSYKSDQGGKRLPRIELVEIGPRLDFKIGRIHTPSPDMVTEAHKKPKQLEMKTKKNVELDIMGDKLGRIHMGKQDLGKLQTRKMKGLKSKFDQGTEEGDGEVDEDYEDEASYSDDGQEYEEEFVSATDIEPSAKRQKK

[3] = molecular target: B4; assay: cryo-EM structure
[4] = molecular target: B1; assay: cryo-EM structure

Q: Does B1 bind [1]?
A: binds

B2: Rrs1, full-length (Saccharomyces cerevisiae) (natural protein)
chain: MSAEDYKNLPVTVEKPIPVVYDLGNLAAFDSNVLDKNDLDSSNARREEKIKSLTRDNVQLLINQLLSLPMKTTTESVGGTGGQSSVMTLLQLPDPTTDLPREKPLPKAKAMTKWEKFAAKKGIKPKERAGKMIYDEASGEWVPKWGYKGANKKLDDQWLVEVDDKVKGTDNELIDPRTLNRAERKRLVKKNEKQQRRNMKNAL
Q: How did the “stoichiometry N” value [2] turn out when B2 was run?
A: 1

B3: Rrs1 within Alb1-TAP purified pre-60S particles (natural protein)
chain: MSAEDYKNLPVTVEKPIPVVYDLGNLAAFDSNVLDKNDLDSSNARREEKIKSLTRDNVQLLINQLLSLPMKTTTESVGGTGGQSSVMTLLQLPDPTTDLPREKPLPKAKAMTKWEKFAAKKGIKPKERAGKMIYDEASGEWVPKWGYKGANKKLDDQWLVEVDDKVKGTDNELIDPRTLNRAERKRLVKKNEKQQRRNMKNAL
Q: Does B3 bind [3]?
A: binds

Q: Does B3 bind [1]?
A: binds

Q: Does B4 bind [4]?
A: binds
